Results: patent US20130142788A1 (published 2013)
Read-outs that look alike come from different tables or passages of the source.

T1: recombinant mature dimeric myostatin (human and mouse (mature sequences 100% …, UniProt O08689 268-376))
T1 construct: also called GDF-8; mature myostatin
T1 sequence: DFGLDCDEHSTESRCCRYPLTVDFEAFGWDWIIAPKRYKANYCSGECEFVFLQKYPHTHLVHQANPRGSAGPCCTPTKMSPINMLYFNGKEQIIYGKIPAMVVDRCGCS

T2: Fc R 2a Arg polymorphism (UniProt P12318 34-217, limits assumed)
T2 construct: also called FcγRIIa Arg
T2 sequence (looked up): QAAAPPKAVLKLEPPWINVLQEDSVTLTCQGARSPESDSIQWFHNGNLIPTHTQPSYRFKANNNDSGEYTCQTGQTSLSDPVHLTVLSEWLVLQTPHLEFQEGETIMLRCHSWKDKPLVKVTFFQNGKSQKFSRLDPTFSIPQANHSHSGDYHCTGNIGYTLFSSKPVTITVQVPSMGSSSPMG

T3: Fc R 2a His polymorphism (UniProt P12318 34-217, limits assumed)
T3 construct: also called FcγRIIa His
T3 sequence (looked up): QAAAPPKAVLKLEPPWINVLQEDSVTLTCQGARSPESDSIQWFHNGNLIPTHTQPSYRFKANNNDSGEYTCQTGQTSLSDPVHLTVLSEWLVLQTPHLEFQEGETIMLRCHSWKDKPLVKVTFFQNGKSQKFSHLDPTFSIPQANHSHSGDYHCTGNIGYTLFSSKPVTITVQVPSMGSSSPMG

T4: GDF-11 (UniProt O95390 299-407)
T4 construct: also called Growth and Differentiation Factor-11
T4 sequence (looked up): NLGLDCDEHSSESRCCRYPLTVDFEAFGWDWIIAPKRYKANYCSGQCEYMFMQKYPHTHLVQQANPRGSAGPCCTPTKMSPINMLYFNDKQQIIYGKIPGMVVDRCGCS

T5: rhBMP6 (human, UniProt P22004)
T5 construct: recombinant (rh); form not further stated; member of the growth factor panel m51, named only on the sheet
T5 sequence (looked up): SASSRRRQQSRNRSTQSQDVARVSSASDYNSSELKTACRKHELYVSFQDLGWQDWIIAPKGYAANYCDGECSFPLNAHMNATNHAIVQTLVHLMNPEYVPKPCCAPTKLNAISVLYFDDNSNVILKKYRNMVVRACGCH

T6: rhBMP9 (human, UniProt Q9UK05)
T6 construct: recombinant (rh); form not further stated; member of the growth factor panel m51, named only on the sheet
T6 sequence (looked up): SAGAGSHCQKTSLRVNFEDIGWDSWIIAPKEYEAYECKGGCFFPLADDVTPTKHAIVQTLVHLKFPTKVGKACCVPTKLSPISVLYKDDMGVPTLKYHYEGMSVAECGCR


Legend:
[1] = target: T1, recombinant mature dimeric myostatin; assay: ActRIIb neutralisation ELISA: inhibition of 2 nM biotinylated myostatin binding to coated ActRIIb
Description: Recombinant soluble ActRIIb (R&D Systems 339-RBB) was coated in wells of an ELISA plate at 1 μg/ml in carbonate buffer overnight at 4° C. Plates were blocked with PBS containing 0.1% tween 20 and 0.1% BSA and washed following standard ELISA protocols. In parallel, 2 nM biotinylated myostatin (in-house reagent, described above) was pre-incubated with a dilution series of the antibodies of Tables 21 and 22 for 30 minutes at 37° C. The biotinylated myostatin:antibody reactions were then added (50 μl/well) to the ActRIIb coated plate for 1 hour at 37° C. Standard wash procedures were followed prior to addition of 50 μl per well of a 1:200 diluted streptavidin-HRP conjugate (R&D Systems. #890803) followed by a further 37° C. incubation for 1 hour. Plates were again washed and assayed at absorbance 490 nm following substrate (R&D Systems, #DY999) and acid stop solution treatment.

[2] = target: T1, recombinant mature dimeric myostatin; assay: cell-based or functional assay
Fc R3a Val polymorphism = target: T7, Fc R3a Val polymorphism (UniProt P08637 17-208, limits assumed); assay: ProteOn XPR36 SPR, antibody immobilised, receptor 8-2048 nM, equilibrium model
T7 construct: also called FcγRIIIa Val
Description: (§1) Binding analysis to Fc R5 and C1q was carried out using the ProteOn XPR36. The test antibodies (H8L5 and Fc-disabled H8L5) were immobilised on a GLC biosensor chip by primary amine coupling. The Fc Rs were used at 2048 nM, 512 nM, 128 nM, 32 nM and 8 nM, while C1q was used at 512 nM, 128 nM, 32 nM, 8 nM and 2 nM. A buffer injection (i.e. 0 nM) was used to double reference the binding sensorgrams. Due to the nature of the interaction (i.e. fast on/fast-off) regeneration was not required and the binding sensorgrams returned to baseline by use of a 20 min dissociation time and subsequent buffer injections. The data was fitted to the Equilibrium model inherent to the PrateOn's analysis software, using a global R-max for each receptor group and for C1q binding (i.e. Fc R 2aHis and Arg polymorphisms were analysed together and Fc R3aPhe and Val polymorphisms were analysed together, while C1q was analysed separately).

Fc R 2a Arg polymorphism = target: T2, Fc R 2a Arg polymorphism; assay: as above
Description: as §1

Fc R3a Phe polymorphism = target: T8, Fc R3a Phe polymorphism (UniProt P08637 17-208, limits assumed); assay: as above
T8 construct: also called FcγRIIIa Phe
Description: as §1

Fc R 2a His polymorphism = target: T3, Fc R 2a His polymorphism; assay: as above
Description: as §1

GDF-11 = target: T4, GDF-11; assay: ELISA, growth factors coated at 0.5 µg/ml, H8L5 titrated
Description: An ELISA was performed to determine whether H8L5 might bind any other growth factors and especially other members of the TGF family which were known to share some homology around the proposed epitope sequence. By coating an ELISA plate with the various growth factors at 0.5 μg/ml and titrating in H8L5 under standard ELISA conditions, It was concluded that the only other factor tested to which H8L5 could bind was GDF-11 wherein the concentration required to give 50% binding was 3-fold lower than myostatin (FIG. 22).

[3] = target: T1, recombinant mature dimeric myostatin; assay: Kinexa solution phase affinity
Description: Kinexa (Sapidyne Instruments) solution phase affinity was used to determine the overall affinity for a range of anti-myostatin molecules. Myostatin beads were prepared either by adsorption (polymethylmethacrylate beads-PMMA) or amine coupling (NHS-activated sepharose beads). The range of anti-myostatin molecules studied necessitated the generation of beads coated with different concentrations of myostatin. For the solution phase portion of the assay, a fixed concentration of antibody was incubated with a broad range of myostatin concentrations and allowed to reach equilibrium by incubation at r.t. for at least 2 h before analysis proceeded. The myostatin beads were then used to determine the amount of free antibody present in the solution phase samples, by means of the free antibody binding to the myostatin bead matrix then detected using an appropriate secondary antibody (either anti-human or anti-mouse depending on the construct being tested) labelled with a fluorescent dye. The binding curves where fitted using the Kinexa Pro analysis software inherent to the machine. Multiple runs using varying starting concentrations of antibody were then compiled and analysed using the n-curve analysis software to give a more accurate determination of affinity.

rhBMP6 = target: T5, rhBMP6; assay: ELISA: plate coated with the growth factor at 0.5 µg/ml, H8L5 titrated; read-out % Bound
rhBMP9 = target: T6, rhBMP9; assay: as above
[4] = target: T1, recombinant mature dimeric myostatin; assay: ActRIIb receptor neutralisation ELISA: antibody pre-incubated with 2 nM biotinylated myostatin, binding to coated ActRIIb
Description: Recombinant soluble ActRIIb (R&D Systems 339-RBB) was coated in wells of an ELISA plate at 1 μg/ml in carbonate buffer overnight at 4° C. Plates were blocked (see Block solution above at 2.3) and washed following standard ELISA protocols. In parallel, 2 nM biotinylated myostatin (in-house, as described in 1.1, biotinylated material) was pre-incubated with an antibody dilution series consisting of 10B3, 10B3C, and a negative control (IgG1 isotype control) for 2 hours at 37° C. The biotinylated myostatin:antibody reactions were then added to the ActRIIb coated plate for 1 hour at 37° C. Standard wash procedures were followed prior to addition of 1:1000 diluted streptavidin-HRP conjugate (Dako P0397) and a further 37° C. incubation for 1 hour. Plates were again washed and assayed at absorbance 490 nm following OPD substrate (Sigma) and acid stop solution treatment. Inhibition curves and IC50 values for the inhibition of myostatin activity are shown in FIG. 5 and Table 8 respectively.

[5] = target: T1, recombinant mature dimeric myostatin; assay: BIAcore T100 SPR, antibody captured on protein A, myostatin analyte, all curves Bivalent model
Description: (§2) The affinity of 10B3 mouse parental and 10B3C for recombinant myostatin was assessed by BIAcore™ (surface plasmon resonance) analysis. Analysis was carried out by the use of a capture surface: anti-mouse IgG was coupled to a C1 chip by primary amine coupling for 10B3 mouse parental; and a protein A surface was created on a C1 chip by primary amine coupling for 10B3 chimera.
(§3) After capture, recombinant myostatin was passed over the surface at 64 nM, 16 nM, 4 nM, 1 nM, 0.25 nM and 0.0625 nM, with a buffer injection (i.e. 0 nM) used for double referencing. There was a regeneration step between each analyte injection, after which the new antibody capture event occurred before the next injection of myostatin. The data was analysed using both the 1:1 model and the Bivalent model inherent to the T100 machines analysis software (see Table 6). Both capture surfaces could be regenerated using 100 mM phosphoric acid, the work was carried out using HBS-EP as the running buffer and using 25° C. as the analysis temperature.

[6] = target: T1, recombinant mature dimeric myostatin; assay: cell-based or functional assay; remark: listed apart in the source
[7] = target: T1, recombinant mature dimeric myostatin; assay: cell-based or functional assay; remark: listed apart in the source
[8] = target: T1, recombinant mature dimeric myostatin; assay: ELISA, myostatin coated at 10 ng/well
Description: 10B3 and 10B3 chimera (10B3C) bound myostatin (R&D Systems, 788-G8-010/CF) in a sandwich ELISA. Plates were coated with myostatin at 10 ng/well and blocked with Block solution (PBS, 0.1% TWEEN and 1% BSA). Following washing (PBS, 0.1% TWEEN), antibody was incubated at 37° C. for 2 hours over a dilution series and plates washed again prior to incubation at 37° C. for 1 hour with anti-mouse HRP or anti-human HRP (Dako, P0161 & Sigma, A-8400, respectively). Plates were again washed and OPD substrate (Sigma, P9187) added until colourometric reaction occurred and the reaction stopped by the addition of H₂SO₄.

[9] = target: T1, recombinant mature dimeric myostatin; assay: BIAcore T100 SPR, antibody captured on protein A, myostatin analyte, all curves 1:1 model
Description: as §2, §3

[10] = target: T1, recombinant mature dimeric myostatin; assay: cell-based or functional assay; remark: listed apart in the source

T8 sequence (P08637 17-208 limits assumed): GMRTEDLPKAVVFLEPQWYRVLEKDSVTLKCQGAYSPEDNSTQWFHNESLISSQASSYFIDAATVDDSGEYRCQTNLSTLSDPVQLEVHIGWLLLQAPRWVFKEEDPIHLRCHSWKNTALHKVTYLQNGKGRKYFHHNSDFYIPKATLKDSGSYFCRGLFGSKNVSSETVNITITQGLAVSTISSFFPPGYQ
T7 sequence (P08637 17-208 F176V limits assumed): as the sequence (P08637 17-208 limits assumed) above, with F160V counted along it

IC50 [1] | IC50, myostatin responsive reporter gene neutralisation assay (A204) [2] | binding result (Fc R3a Val polymorphism) | binding result (Fc R 2a Arg polymorphism) | binding result (Fc R3a Phe polymorphism) | binding result (Fc R 2a His polymorphism) | fold lower concentration required to give 50% binding than for myostatin (GDF-11) | Kd [3] | IC50 [4] | Kd [5] | Mean IC50, A204 in vitro activity assay [6] | IC50, myostatin responsive reporter gene assay (A204 cells, luciferase) [7] | EC50 [8] | Kd [9] | Mean IC50, A204 in vitro activity assay [10] | Binder | binding result (rhBMP6) | binding result (rhBMP9)
0.101 nM | 5 nM | binds | binds | binds | binds | 3 fold | 0.05 nM |  |  |  |  |  |  |  | H8L5 (antibody, IgG1, Humanised IgG1/kappa; also called 10B3H8L5; copies: 2 + 2) heavy: not shown light: DIQMTQSPSSLSASVGDRVTITCKASQDINSYLSWFQQKPGKAPKTLIYRANRLVDGVPSKFSGSGSGTDYTLTISSLQPEDFATYYCLQSDEFPLTFGQGTKLEIKRTVAAPSVFIFPPSDEQLKSGTASVVCLLNNFYPREAKVQWKVDNALQSGNSQESVTEQDSKDSTYSLSSTLTLSKADYEKHKVYACEVTHQGLSSPVTKSFNRGEC | no binding (tested: 10^-7 (axis prints no unit)) | no binding (tested: 10^-7 (axis prints no unit))
 |  | binds | binds | binds | binds |  |  |  |  |  |  |  |  |  | Fc-disabled H8L5 (antibody, IgG1, hIgG1 Fc disabled (L235A, G237A, EU numbering); also called H8L5 disabled; H8disabledL5; copies: 2 + 2) heavy: not shown light: DIQMTQSPSSLSASVGDRVTITCKASQDINSYLSWFQQKPGKAPKTLIYRANRLVDGVPSKFSGSGSGTDYTLTISSLQPEDFATYYCLQSDEFPLTFGQGTKLEIKRTVAAPSVFIFPPSDEQLKSGTASVVCLLNNFYPREAKVQWKVDNALQSGNSQESVTEQDSKDSTYSLSSTLTLSKADYEKHKVYACEVTHQGLSSPVTKSFNRGEC |  | 
 |  |  |  |  |  |  | 0.548 nM | 0.138 µg/mL | 3.6 nM | 3.53 nM | 6.2 nM | 0.049 µg/mL | 0.088 nM | 3.57 nM | 10B3 chimera (antibody, human IgG1, V domains shown, 10B3 variable regions on human IgG1/k wild type constant regions; also called HCLC; HcLc) VH: EVQLQQSGPELVKPGASVKISCKASGYSFTGYFMHWVKQSHGNILDWIGNIYPYNGVSNYNQRFKAKATLTVDKSSSTAYMELRSLTSEDSAVYYCARRYYYGTGPADWYFDVWGTGTLVTVSS VL: DIKMTQSPSSMYASLRERVTITCKASQDINSYLSWFQQKPGKSPKTLIYRANRLVDGVPSRFSGSGSGQDYSLTISSLEYEDMGIYYCLQCDEFPLTFGAGTKLELKR |  | 
